From the nanobody polyreactivity screen of Harvey et al. (2022)

experiment: yeast display, Sf9 membrane polyspecificity reagent, FACS + sequencing; frameworks hold sequencing errors
Method in brief: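 Sorting gates, low and high (top ~1%), were placed on anti-HA fluorescence to track expression and on streptavidin fluorescence to track reagent binding. A clone's polyreactivity label is taken from the gate it came out of. The reagent was 10% biotinylated, detergent-solubilized Sf9 membrane, applied for 1 hour at 4 °C to galactose-induced yeast display cells.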

Question: Which “polyreactivity (PSR sort gate)” value does the source give for “QFQLVESGGGLVQAGASLRLSCAASGSIFDLNALGWYRQAPGKDRELVAAITRDSGITYYADSVKGRFKISRDNAKNTVYLQMNSLKPEDTAVYYCAADADSSSGDSWGQGTQVTVSS” here?
Answer: low polyreactivity

Question: For “QVQLVESGGGLVQAGGSLRLSCAASGSTIKYYAMGWYRQAPGKDRELVAAINWSGDSTYYADSVKGRFTISRDNAKNTVYLQMHSLKPEETAVYYCAVRYQKRAYYGSNYWGQGTQVTVSS”, which “polyreactivity (PSR sort gate)” value is on record?
Answer: high polyreactivity

Question: Which “polyreactivity (PSR sort gate)” value does the source give for “QVQLVESGGGLVQAGGSLRLSCAASGLIFTWYAMGWYRQAPGKERELVADISWSDDSTNYADSVKGRFTISRDNAKNTVYLQMNSLKPEDTAVYYCATQLDYGGRVGDADDYWGQGTQVTVSS” here?
Answer: low polyreactivity

Question: With “QVQLVESGGGLVQAGGSLRLSCAASGRIFDRNAMGWYRQAPGKERELVAAIDDSGGDTSYADSVKGRFTISRDNAKNTVYLQMNSLKPEDTAVYYCNAGYADFVTYPRYYYWGQGTQVTVSS” as the sequence, how does the “polyreactivity (PSR sort gate)” value read?
Answer: low polyreactivity

Question: Which “polyreactivity (PSR sort gate)” value does the source give for “QVQLVESGGGLVQAGGSLRLSCAASGITFTIYAMGCNRQAPGKERELVAAITWTSDITHYADSVKGRVTISRDNAKNTDYLQMNSLKPEDTAVYYCGATTWDEYDYWGQGTQVTVSW” here?
Answer: high polyreactivity

Question: Which “polyreactivity (PSR sort gate)” value does the source give for “QVQLVESGGGLVQAGGSLRLSCAASGSIFYNAMGWYRQAPGKERELVAAISYRGGRTYYADSVKGRFTISRDNAKNTVYLQMNSLKPEDTAVYYCAADSTVGRYPYDYWGQGTQVTVSS” here?
Answer: high polyreactivity

Question: With “QVQLVESGGGLVQAGGSLRLSCAASGNTFVPYVMGWYRQAPGKERELVAAISRRGGSTRYADSVKGRFTISRDNAKNTVYLQMNSLNPEDTAVYYCAADGYVFALQRSRGVDFGYEYWGQGTQVTVSS” as the sequence, how does the “polyreactivity (PSR sort gate)” value read?
Answer: high polyreactivity

Question: With “QVQLVESGGGLVQAGGSLRLSCAASGITFYEYAMGCYRQAPGTERDFVAAIDHGDSSTYYADSVKGRFTISRDNAKNTVYLQMNSLKPEDTAVYYCNADPYYDYSLNWGDYWGQGTQVTVSS” as the sequence, how does the “polyreactivity (PSR sort gate)” value read?
Answer: low polyreactivity

Question: For “QVQLVESGGGLVQAGGSLRLSCAASGIILPYYAMGWYRQAPGKERELVASISQSGSSTYYADSVKGRFTISRDNAKNTVYLQMNSLKPEDTAVYYCNAKPGSWYIRYDYWGQGTQVTVSS”, which “polyreactivity (PSR sort gate)” value is on record?
Answer: low polyreactivity

Question: Which “polyreactivity (PSR sort gate)” value does the source give for “QVQLVESGGGLVQAGGSLRLSCAASGRTFAYNDMGWYRQAPGKERELGAAISWSDGTTYYADSVKGRFTISRDNAKNTVYLQMYSLKPEDTAVYYCNADDYLTSIYRYDYWGQGTQVTVSS” here?
Answer: low polyreactivity

Question: With “QVQLVESVGGLVQAGGSLRLSSAASGRTFSNAKGWYRQAPGKERELVADISSGGSTNYADSVKGRFTISRDNAKNTVYLQMNSLKPEDPAVYYCAAVSGSLYGYSDDYWGQGTQVTVSS” as the sequence, how does the “polyreactivity (PSR sort gate)” value read?
Answer: low polyreactivity

Question: For “QVQLVESGGGLVQAGGSLRLSCAASGLIFLQYVMGWSRQAPGKEREFVATITDDGDTTYYADSVKGRFTISRDNAKNTVYLQMNSLKPEDTAVYYCAADAEGSASKYDYWGQGTQVTVSS”, which “polyreactivity (PSR sort gate)” value is on record?
Answer: low polyreactivity

Question: With “QVQLVESGGGLVQAGGSLRLSCAASGSTFYYFALGWYRQAPGKERELVAAISSGGTTNYADSVKGRFTISRDNAKNTVYLQINSLKPEDTAVYYCAARFRRVRFTHYDYWGQGTQVTVSS” as the sequence, how does the “polyreactivity (PSR sort gate)” value read?
Answer: high polyreactivity

Question: For “QVQHVESGGGLVQAGGSLRLSCAASGRIFYAYTMGWYRQAPGKERELGAAISRSGSTYYADSVKGRFTISRDNAKNPVYLQMNSLKPEDTAVYYCAADVTGGRKYDYWGQGTQVTVSS”, which “polyreactivity (PSR sort gate)” value is on record?
Answer: low polyreactivity

Question: For “QVQLEESGGGLVQAGGSLRLICAASGRTFSGNTMGWYIQAPGKERELVAAITGRGGSTYYADSEKGRFTISRDNEKNTVYLQMNSLKPVDTAVYYCAALRYTFAGRFDYWGQGTQVTVSS”, which “polyreactivity (PSR sort gate)” value is on record?
Answer: high polyreactivity

Question: Which “polyreactivity (PSR sort gate)” value does the source give for “QVQLVESGGGLDQAGGSLRLSCAASGRIFNKYAMGWYRQAPGKERELVAAITRSGTRTFYADSVKGRFTISRDNAKNTVYLQMNSLKPEDTAVYYCNRDQYPFTKMDYWGQGTQVTVSS” here?
Answer: high polyreactivity

Question: For “QVQLVESGGGLVQAGGSLRLSCAASGSIFWPNAMGWYRQAPGKERELVAAIRRSGGSTYYADSVKGRFTISRDNAKNTVYLQMNSLKPEDTAVYYCAARADLHRRVRNIYYSWGQGTQVTVSS”, which “polyreactivity (PSR sort gate)” value is on record?
Answer: low polyreactivity

Question: With “QVQLVESGGGLVQAGGSLRLSCAASGRTFTYYAIGWYRQAPGKERELVADINRSGGDTYYADSVKGRFTISRDNAKNTVYLQMNSLKPEDTAVYYSAADDWGAQHRYDYWGQGTQVTVSS” as the sequence, how does the “polyreactivity (PSR sort gate)” value read?
Answer: low polyreactivity

Question: Which “polyreactivity (PSR sort gate)” value does the source give for “QVQLVESGGGLVQAGGSLRLSCAASGSTFGGNAMGWYRQAPGKERELVAAITVGGDSTYYADSVKGRFTISRDNAKNTVYLQMNSLKPEDTAVYYCAARHYWWYDYWGQGTQVTVSS” here?
Answer: low polyreactivity

Question: Which “polyreactivity (PSR sort gate)” value does the source give for “QVQIVESGAGLVQAGRSLRLSCAASGIIFHRYAMGWYRQAPGKERELVAAITWSGDSTYYADSVKGRFTISRDNAKNTVYLQMNSLKPEDTAVYYFWEYDYWGQGTQVTVSS” here?
Answer: low polyreactivity

Question: For “QDQLVESGGGLVQAGGSLRLSCAASVSTFILNAMGWYRQAPGKERELVATISSSDTSTYYADSVKGRFTISRDNAKNTVYLQMNSLKPEDTAVYYCNADYYTTSYLQRVYHYGVEYDYWGQGTQVTVSS”, which “polyreactivity (PSR sort gate)” value is on record?
Answer: low polyreactivity

Question: Which “polyreactivity (PSR sort gate)” value does the source give for “QVQLVESGGGLVQAGGSLRLSCAASGRIFRRNTMGWYRQAPGKERELVAAITSSGGSTYADSVKGRFTISRDNAKNTVYLQMNSLKPEDTAVYYCAAVRLYRYDYWGQGTQVTVSS” here?
Answer: low polyreactivity

Question: Which “polyreactivity (PSR sort gate)” value does the source give for “QVQLVESGGGLVQAGGSLRLSCAASGSTIADNAMGWYRQAPGKERELVAAITRSGVRTYYADSVKGRFTISRDNAKYTVYLQMNSLKPDDSAVYYCAKRTYPSRIYDYWGQGTQVTVSS” here?
Answer: low polyreactivity

Question: With “QVQLVESGGGLVQAGGSLRLSCAASGSTLYRYAMGWYRQAPGKEREFVAAISVSGARTYYADSVKGRFTISRDNAKNTVYLQMNSLKPEDTAVYYCAARGGYQYDYWGQGTQVTVSS” as the sequence, how does the “polyreactivity (PSR sort gate)” value read?
Answer: high polyreactivity

Question: For “QVQLVESGGGLVQAGGSLRLSCAASGGIFVRNAMLWYRQAPGKERELVAAISDTGGSTYYADSVKGRFTISRDNAKNTVYLQMNSLKPEDTAVYYCAADLSPEADDYDVGGWRFRYDYWGQGTQVTVSS”, which “polyreactivity (PSR sort gate)” value is on record?
Answer: low polyreactivity

Question: With “QVQLVESGGGLLQAGGSLRLSCAASGLIFYDNMGWYRQAPGKERELVAAISSTGGSTSYADSVKGRFTISRDNAKNTVYLLMNSLKPEDTAVYYCAADSYPAYLGFVGFDYWGQGTQLTVSS” as the sequence, how does the “polyreactivity (PSR sort gate)” value read?
Answer: low polyreactivity

Question: Which “polyreactivity (PSR sort gate)” value does the source give for “QVQLVESGGGLVQAGGSLRLSCAASGFTFVRYAMGWYRQAPGKERELVAAISSSGSSTYYGDSVKGRFTISRDHEKNTVYLQMNSLKPEDTAVYYFNARAGRGEDYWGQGTQVTVSS” here?
Answer: low polyreactivity

Question: With “QVQLVESGGGLVQAGGSLRLSCAASGSIFSDYAKGWYRQAPVKERELVAVITSGGRTNYADSLKGRFTISRDNAKNTVYLQMNSLKPEDTAVFYWNAYVHSRRVEFNYWGQGTQVTVSS” as the sequence, how does the “polyreactivity (PSR sort gate)” value read?
Answer: high polyreactivity

Question: For “QGQLVESGGRLVQAGGSLRLSCAASGFIFRSYAMGWYRQAPAKERELVAVISRRGVNTPYADSVKGRFTISRDTSKNTVYLQMNSLKAEDTAVYYCAKGLTALGDYWGQGTQVNVSS”, which “polyreactivity (PSR sort gate)” value is on record?
Answer: high polyreactivity

Question: For “QVLLVESGGGLVQAGGSLRLSCAPSGSIFDYYTMGWYRQAPGKERELVAAISSDGSTNYADSVKGRFTISRDNAKNTVYLQMNTLKPEDTAVYYCADSTYRFYYYLKRGYWGQGTKVTVSS”, which “polyreactivity (PSR sort gate)” value is on record?
Answer: low polyreactivity

Question: With “QVQLVESGGGLVHAGGSLRLSCAASGRIFRWYAMGWYRQAPGKERELVAAISSRGGSTYYADSVKGRFTISRDNAKNTVYLQMNSLKPEDTAVYYCAADTSGWQPRYDYWGQGTQVTVSS” as the sequence, how does the “polyreactivity (PSR sort gate)” value read?
Answer: high polyreactivity

Question: For “QVPLVESGGGIDQAGGSLRLSCAASGFIFCTYTMGWYIQAPGNEWELVAAISKSSGSTYYADSVKGRFTISRDNAKKTVYLQMNSLKPEDTAVYYCAAPTRSYGTPPYDYWGQGTQVTVSA”, which “polyreactivity (PSR sort gate)” value is on record?
Answer: low polyreactivity

Question: For “QVQLVESGGGLVQAGGSLRLSCAASGSISYRYDMGWYRQAPGKERELVATIRSGGSTNYADSVKGRFTISRDNAKNTVYLQMNSMIPEDTAVYYCAARLYARKILHFSADSDYWGQGTQVTVSS”, which “polyreactivity (PSR sort gate)” value is on record?
Answer: low polyreactivity

Question: Which “polyreactivity (PSR sort gate)” value does the source give for “QVQLVESGGGLVQAGGSLRLSCAASGSILKSNAMGWYRQAPGKERELVAAITYRDGSTYYADSVKGRFTISRDNAKNTVYLQMNSLKAEDTAVYYCAAEPSWWNVFYPGYNYWGQGTQVTVSS” here?
Answer: high polyreactivity

Question: Which “polyreactivity (PSR sort gate)” value does the source give for “QVQLVESGGGLVQAGGSLRLSCAASGNIFRPYTMGWYSQAPGKERQLVARISSGGSTNYADSVKGRFTISRDNAKNTVYLQMNSLKPEDTAVYYCAKRYGTVHSRYGYWGQGTQVTVSS” here?
Answer: high polyreactivity

Question: With “QVQLVESGGGLVQAGGSLRLSCDASGLTFRLYTMGWYRQAPGKETELGAAITYSGDSTYYADSVKGRFTISRDNAKNTDYLQMNSLKPEDTAVYYCAARKYYARYYWGQGTQVTVSW” as the sequence, how does the “polyreactivity (PSR sort gate)” value read?
Answer: high polyreactivity

Question: For “QVQLVESGGGLVQAGGSLRLSCAASGRTFGDYAMGGYRPAPGKESELVAAISRRGGNTYYADSVKGRFTISRDNAKNTVYLQMNSLKPDDTAVYDCAAVAYALGFASKEDYWGQGTQVTGSS”, which “polyreactivity (PSR sort gate)” value is on record?
Answer: high polyreactivity

Question: For “QFKLVESGGGLVQAGGSLRLSCAASGFTFRLVKAMRWYRQAPGKERELVAGINSGDITYYADSVKGRFTISRDNAKNTVYLQMNSLKPEDTAVYYCAARVVYGYGHYDYWGQGTQVTVSS”, which “polyreactivity (PSR sort gate)” value is on record?
Answer: low polyreactivity

Question: Which “polyreactivity (PSR sort gate)” value does the source give for “QVQLVESGGGLVQAGGSLRLSCAASGRIFGLYALGWYRPAPGKEREFVAAIRWIGGGTYYADSVKGRFTISRDHAKNTVYLQINSLKPEDTAVDSCNVVTWYYVFRPWEYDYWGQGTQVTVSS” here?
Answer: low polyreactivity

Question: With “QVQLVESGGGLVQAGGSLRLSCASSGITFTFYVMGWYRQAPGKERELVAAISSGGGRTYYADSVKGRFTISRDNAKNTVYLQMNSLKPEDTAVYYCNAALYHDSEYNYWGQGTQVSVSS” as the sequence, how does the “polyreactivity (PSR sort gate)” value read?
Answer: high polyreactivity

Question: For “QVQLVESGGGLVQAGGSLRLSCAASGRTFGRNAMGWYRQAPGKERELVAAISYGGGSTYYADSVKGRFTISRDNAKNTVYLQMNSLKPEDTAVYYCAAPTDDSSLGVYKHGYWGQCTQVTVSS”, which “polyreactivity (PSR sort gate)” value is on record?
Answer: low polyreactivity

Question: With “QVQLVESGGGLVQAGGSLRLICAASGSIFAGNAMGWYRQAPGKERELVAAITWSGGSTYYADSVKGRFTISRDNAKNTVYLQMNSLKPEDTAVYYCAAPTQADVVGYDYWGQGTQVTVSS” as the sequence, how does the “polyreactivity (PSR sort gate)” value read?
Answer: low polyreactivity

Question: With “QVQLVESGGGLVQAGGSLRLSCAASGFIFRRYAMGWYRQAPGKERELVAAISGSGGRTYYADSVKGRFTISRDNAKNTVYLQMNSLKPEDTAVYYCAATYQYLKSGYYWGQGTQVTVSS” as the sequence, how does the “polyreactivity (PSR sort gate)” value read?
Answer: high polyreactivity
